# Laboratory results from patent publication US20230201308A1, “TREATMENT OF CORONAVIRUS INFECTION WITH […]” (Eiger Biopharmaceuticals, Inc., priority 2020, published 2023).
# Read-outs that look alike come from different tables or passages of the source.
# Tested on: SARS-CoV-2
# [1] = Treated within 5 days of symptom onset, n=800 vs placebo 879
# [2] = Unvaccinated population, n=143 vs placebo 176
# [3] = final, treatment ≤3 days of symptom onset
# [4] = high-risk patients, pooled Brazil+Toronto
# [5] = intention-to-treat, N = 931 vs placebo N = 1018
# [6] = treatment within 3 days of symptom onset
# [7] = unvaccinated patients, treatment within 3 days of symptoms
# [8] = ≤3 days of symptoms before treatment, preliminary
molecule,measurement,setting,value
"pegylated interferon lambda-1a (protein, PEG, 180 mcg subcutaneous injection) MKPTTTGKGCHIGRFKSLSPQELASFKKARDALEESLKLKNWSCSSPVFPGNWDLRLLQVRERPVALEAELALTLKVLEAAAGPALEDVLDQPLHTLHHILSQLQACIQPQPTAGPRPRGRLHHWLHRLQEAPKKESAGCLEASVTFNLFRLLTRDLKYVADGNLSLRTSTHPEST","Hospitalization or ER (any duration) for COVID-19, RR (95% CrI) vs placebo",[1],"0.73 (0.56, 0.94)"
same,"Hospitalization or ER ≥6 h for COVID-19, % of patients",[1],(2.5%)
same,"Hospitalization or ER ≥6 h for COVID-19, Pr (Superiority)",[1],1.000
same,"Hospitalization or ER ≥6 h for COVID-19, RR (95% CrI) vs placebo",[1],"0.45 (0.26, 0.72)"
same,"Death due to COVID-19, % of patients",[2],0 (0%)
same,"Death due to COVID-19, RR (95% CrI) vs placebo",[2],"0.51 (0.02, 6.47)"
same,"Death or hospitalization due to COVID-19, % of patients",[2],4.2%
same,"Death or hospitalization due to COVID-19, RR (95% CrI) vs placebo",[2],"0.49 (0.19, 1.12)"
same,"Hospitalization for COVID-19, % of patients",[2],4.2%
same,"Hospitalization for COVID-19, RR (95% CrI) vs placebo",[2],"0.49 (0.19, 1.12)"
same,"Hospitalization or ER (any duration) for COVID-19, % of patients",[2],16.1%
same,"Hospitalization or ER (any duration) for COVID-19, Pr (Superiority)",[2],0.806
same,"Hospitalization or ER (any duration) for COVID-19, RR (95% CrI) vs placebo",[2],"0.82 (0.50, 1.29)"
same,"Hospitalization or ER ≥6 h for COVID-19, % of patients",[2],4.2%
same,"Hospitalization or ER ≥6 h for COVID-19, Pr (Superiority)",[2],0.967
same,"Hospitalization or ER ≥6 h for COVID-19, RR (95% CrI) vs placebo",[2],"0.46 (0.18, 1.05)"
same,deaths in the arm,early treated patients,no deaths
same,COVID-19 deaths in the treatment arm,final ITT,one
same,"Hazard ratio, COVID-19-related hospitalization or death (all-cause death)",final ITT,0.59
same,"hazard ratio, COVID-19 death",final ITT,0.22
same,"hazard ratio, risk of hospitalization",final ITT,0.57
same,"relative risk, COVID-19-related hospitalization alone",final ITT,0.57
same,"risk reduction, COVID-19-related hospitalization or all-cause death",final ITT,41%
same,"relative risk, primary outcome","final ITT, 931 vs placebo 1018",0.49
same,"participants experiencing a primary outcome event, %","final ITT, n=931",2.7%
same,"participants experiencing a primary outcome event, count","final ITT, n=931",25 of 931
same,"absolute risk reduction (with 95% Bayesian credible intervals) plotted, FIG. 14","final ITT, patients receiving peginterferon lambda","0.028 (0.018, 0.039)"
same,"relative risk, primary outcome","final, treatment within 3 days of symptom onset",0.42
same,"Hazard ratio, COVID-19-related hospitalization or death",[3],0.35
same,"risk reduction, COVID-19-related hospitalization or death",[3],65%
same,"RR, All-cause mortality or Hospitalization","high-risk patients, Brazil",0.69
same,"RR, Death or Hospitalization due to COVID-19","high-risk patients, Brazil",0.63
same,"RR, Hospitalization or ER visit>6 hours","high-risk patients, Brazil",0.49
same,"probability of superiority (Pr), Hospitalization or ER visit>6 hours","high-risk patients, Brazil",0.990
same,"Pr, Hospitalization or ER visit>6 hours",[4],0.990
same,"RR, All-cause mortality or Hospitalization",[4],0.69
same,"RR, Death or Hospitalization due to COVID-19",[4],0.63
same,"RR, Hospitalization or ER visit>6 hours",[4],0.49
same,"participants with primary outcome event, count","human, in vivo",23/929
same,"relative risk, primary outcome","human, in vivo",0.47
same,Days on mechanical ventilation: mean,"intention-to-treat, N = 931",10.2 days
same,Death due to COVID-19: percentage of patients,"intention-to-treat, N = 931",(0.1%)
same,Death due to COVID-19: total (no. of patients),"intention-to-treat, N = 931",1
same,Death or hospitalization due to COVID-19: percentage of patients,"intention-to-treat, N = 931",(2.4%)
same,Death or hospitalization due to COVID-19: total (no. of patients),"intention-to-treat, N = 931",22
same,Hospitalization for COVID-19: percentage of patients,"intention-to-treat, N = 931",(2.3%)
same,Hospitalization for COVID-19: total (no. of patients),"intention-to-treat, N = 931",21
same,Hospitalization or ER (any duration) for COVID-19: percentage of patients,"intention-to-treat, N = 931",(10.6%)
same,Hospitalization or ER (any duration) for COVID-19: total (no. of patients),"intention-to-treat, N = 931",99
same,Hospitalization or ER visit >6 h for COVID-19: percentage of patients,"intention-to-treat, N = 931",(2.7%)
same,Hospitalization or ER visit >6 h for COVID-19: total (no. of patients),"intention-to-treat, N = 931",25
same,"Days on mechanical ventilation: MD (95% CrI), estimated treatment effect",[5],"−4.47 (−6.89, 3.09)"
same,Days on mechanical ventilation: Probability of Superiority (MD),[5],90.5
same,"Days to death for COVID-19: HR (95% CI), estimated treatment effect",[5],"0.22 (0.01, 1.64)"
same,Days to death for COVID-19: Probability of Superiority (HR),[5],90.7
same,"Days to death or hospitalization due to COVID-19: HR (95% CrI), estimated treatment effect",[5],"0.59 (0.35, 0.97)"
same,Days to death or hospitalization due to COVID-19: Probability of Superiority (HR),[5],98.1
same,"Days to hospitalization for COVID-19: HR (95% CrI), estimated treatment effect",[5],"0.57 (0.33, 0.95)"
same,Days to hospitalization for COVID-19: Probability of Superiority (HR),[5],98.5
same,"Days to hospitalization or ER visit >6 h for COVID-19: HR (95% CrI), estimated treatment effect",[5],"0.47 (0.29, 0.73)"
same,Days to hospitalization or ER visit >6 h for COVID-19: Probability of Superiority (HR),[5],>99.9
same,Death due to COVID-19: Probability of Superiority (RR),[5],86.9
same,"Death due to COVID-19: RR (95% CrI), estimated treatment effect",[5],"0.39 (0.05, 1.95)"
same,Death or hospitalization due to COVID-19: Probability of Superiority (RR),[5],97.7
same,"Death or hospitalization due to COVID-19: RR (95% CrI), estimated treatment effect",[5],"0.61 (0.36, 0.99)"
same,Hospitalization for COVID-19: Probability of Superiority (RR),[5],98.3
same,"Hospitalization for COVID-19: RR (95% CrI), estimated treatment effect",[5],"0.58 (0.34, 0.96)"
same,Hospitalization or ER (any duration) for COVID-19: Probability of Superiority (RR),[5],98.1
same,"Hospitalization or ER (any duration) for COVID-19: RR (95% CrI), estimated treatment effect",[5],"0.78 (0.61, 0.99)"
same,Hospitalization or ER visit >6 h for COVID-19: Probability of Superiority (RR),[5],>99.9
same,"Hospitalization or ER visit >6 h for COVID-19: RR (95% CrI), estimated treatment effect",[5],"0.49 (0.30, 0.76)"
same,"relative risk, primary outcome",per protocol analysis (25/931 vs 43/825),0.52
same,fewer COVID-19-related deaths than placebo,preliminary ITT,75%
same,"hazard ratio, COVID-19-related hospitalization",[6],0.35
same,"relative risk, all-cause death",[6],0.19
same,risk reduction in all-cause death,[6],81%
same,risk reduction of COVID-19-related hospitalization,[6],65%
same,Hazard ratio vs. placebo,[7],0.11
same,"risk (hazard) reduction, COVID-19-related hospitalization or death",[7],89%
same,"Risk Reduction (95% BCI), Hospitalizations or Deaths",[8],60% (17-82%)
same,"Risk Reduction (95% BCI), Hospitalizations or ER visits",[8],67% (19-79%)
same,"Risk Reduction (95% BCI), Hospitalizations or Deaths","≤7 days of symptoms before treatment, preliminary",39% (1-64%)
